The target in assay [1] is HER3 on cells (MCF7 cells; MDA-175 cells) (UniProt P21860 20-1342, limits assumed). The assay is described as follows: cell-based or functional assay.
In the next assay the target is HER3 (form not given) (human, UniProt P21860 20-643, limits assumed). Nature of the assay: affinity maturation of DL11.
Assay [2] deals with T1, HER2-ECD (human, UniProt P04626 23-652).
T1 construct: extracellular domain
Nature of the assay: phage IC50 (solution competition ELISA), compared to D1.5-201.

The target in assay [3] is T2, hEGFR-ECD (human, UniProt P00533 25-645).
T2 construct: extracellular domain
Described as above.

The target of assay [4] is T3, hEGFR-ECD-Fc (human EGFR extracellular domain fused to an Fc region of human IgG1) (human, UniProt P00533 25-645).
T3 construct: extracellular domain; not shown: Fc region of human IgG1
Nature of the assay: direct phage ELISA, proteins coated at 2 µg/ml, phage-Fab supernatant, OD450.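 Note: specificity test of dual-activity clones, with binding assessed across an antigen panel to check whether each recognises only its cognate target.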 On the technique in general: ELISA stands for enzyme-linked immunosorbent assay.

Assay [5] has as its target T1, HER2-ECD. Described as above.
In assay [6] the target is T4, BSA (bovine, UniProt P02769).
T4 construct: also called bovine serum albumin
T4 sequence (P02769 25-607 limits assumed): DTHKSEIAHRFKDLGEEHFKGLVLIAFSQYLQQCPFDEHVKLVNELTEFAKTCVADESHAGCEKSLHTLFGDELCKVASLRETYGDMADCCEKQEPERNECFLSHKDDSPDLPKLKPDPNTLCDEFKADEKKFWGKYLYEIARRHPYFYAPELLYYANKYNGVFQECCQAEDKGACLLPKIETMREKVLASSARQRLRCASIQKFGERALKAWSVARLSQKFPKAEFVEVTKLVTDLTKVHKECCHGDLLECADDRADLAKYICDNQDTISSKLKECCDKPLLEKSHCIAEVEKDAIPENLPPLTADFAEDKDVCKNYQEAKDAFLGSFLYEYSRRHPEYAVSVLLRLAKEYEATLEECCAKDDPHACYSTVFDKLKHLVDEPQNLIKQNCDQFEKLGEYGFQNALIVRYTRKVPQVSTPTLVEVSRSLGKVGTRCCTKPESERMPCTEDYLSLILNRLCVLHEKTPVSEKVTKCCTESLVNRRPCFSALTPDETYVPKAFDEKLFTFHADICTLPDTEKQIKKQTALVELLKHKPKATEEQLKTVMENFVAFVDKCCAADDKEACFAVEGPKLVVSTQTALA
Described as above.

For assay [7], the target named is T5, HER3-ECD-Fc (human, UniProt P21860 20-643, limits assumed).
T5 construct: extracellular domain; also called HER3-FC; HER3-IgG
The description is as above.

For assay [8], the target named is T6, HER4-ECD-Fc (human, UniProt Q15303 26-651, limits assumed).
T6 construct: extracellular domain
T6 sequence (looked up): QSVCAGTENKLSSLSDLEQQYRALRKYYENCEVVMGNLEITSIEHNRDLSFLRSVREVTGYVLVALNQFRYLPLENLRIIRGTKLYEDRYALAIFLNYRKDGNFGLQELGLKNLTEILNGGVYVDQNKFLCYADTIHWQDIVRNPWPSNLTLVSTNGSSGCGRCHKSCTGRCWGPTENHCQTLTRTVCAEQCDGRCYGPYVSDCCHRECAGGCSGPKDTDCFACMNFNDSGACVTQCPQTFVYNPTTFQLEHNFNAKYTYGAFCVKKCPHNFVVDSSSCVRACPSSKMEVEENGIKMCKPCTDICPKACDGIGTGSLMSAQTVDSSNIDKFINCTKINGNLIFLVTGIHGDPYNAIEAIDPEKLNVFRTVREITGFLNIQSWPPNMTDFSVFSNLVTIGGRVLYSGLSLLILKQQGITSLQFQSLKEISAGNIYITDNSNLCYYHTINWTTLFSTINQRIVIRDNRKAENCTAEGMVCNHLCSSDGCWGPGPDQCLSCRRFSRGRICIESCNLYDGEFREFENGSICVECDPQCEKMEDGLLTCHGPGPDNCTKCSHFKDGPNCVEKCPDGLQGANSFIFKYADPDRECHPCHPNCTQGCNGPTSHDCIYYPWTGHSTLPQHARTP
The assay is described as above.

Assay [9] addresses T7, Xolair.
T7 construct: not shown: the constant regions
The assay is described as above.

A further assay addresses T8, Erbitux.
T8 construct: also called cetuximab; C225; not shown: the constant regions
Described as above.

For assay [10], the target named is T2, hEGFR-ECD. The assay is described as above.
The target of assay [11] is T5, HER3-ECD-Fc. Nature of the assay: phage solution binding competition ELISA as in Example 1, antigen in solution varied.
The target in assay [12] is T2, hEGFR-ECD. The assay is described as above.
The target of assay [13] is T4, BSA. The assay is described as follows: direct phage ELISA on coated proteins as in Example 5, OD450.
A further assay addresses T9, mHER3-Fc.
T9 chain: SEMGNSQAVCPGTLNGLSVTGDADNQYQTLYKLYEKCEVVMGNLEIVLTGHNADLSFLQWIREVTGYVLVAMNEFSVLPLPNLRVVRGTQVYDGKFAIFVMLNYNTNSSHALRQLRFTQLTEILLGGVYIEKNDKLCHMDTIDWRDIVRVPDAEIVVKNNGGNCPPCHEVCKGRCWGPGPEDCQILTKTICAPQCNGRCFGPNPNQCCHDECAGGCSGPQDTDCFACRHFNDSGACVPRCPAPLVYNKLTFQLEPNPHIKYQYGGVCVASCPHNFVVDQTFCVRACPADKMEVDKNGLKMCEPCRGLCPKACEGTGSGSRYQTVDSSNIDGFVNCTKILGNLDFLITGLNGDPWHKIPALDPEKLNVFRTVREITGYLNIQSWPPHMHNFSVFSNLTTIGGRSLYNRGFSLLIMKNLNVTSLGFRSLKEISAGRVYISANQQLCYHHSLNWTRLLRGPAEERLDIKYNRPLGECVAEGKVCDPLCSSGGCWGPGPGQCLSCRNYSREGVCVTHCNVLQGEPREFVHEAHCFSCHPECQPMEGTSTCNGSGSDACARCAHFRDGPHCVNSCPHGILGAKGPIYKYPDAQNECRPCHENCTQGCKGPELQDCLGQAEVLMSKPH
The assay is described as above.

Assay [14] deals with T6, HER4-ECD-Fc. The description is as above.
In a further assay the target is T10, TGF-α.
T10 construct: also called transforming growth factor alpha
The assay is described as above.

Assay [15] deals with T7, Xolair. The assay is described as above.
The target of another assay is T11, mEGFR-ECD-Fc (murine, UniProt Q01279 25-647).
T11 construct: extracellular domain; also called murine EGFR; not shown: Fc
The assay is described as follows: competitive ELISA: serial dilutions of mEGFR-ECD-Fc with fixed D1.5 on hEGFR-ECD-Fc coated plate.

Assay [16] addresses T2, hEGFR-ECD. The assay is described as follows: SPR, BIAcore-2000, mIgG D1.5 immobilized on CM5 (~150 RU), EGFR-ECD 12.5-200 nM as analyte, 25 C, 1:1 Langmuir model. In general terms: Surface plasmon resonance follows binding to a sensor surface in real time, without labels.
Assay [17] concerns the target T1, HER2-ECD. The assay is described as follows: direct phage ELISA on coated proteins as in Example 5, OD450.

Changes are numbered by the printed parent chain.

The text below walks through data of US20120121596A1 (published 2012).

In general, IC50 refers to the point on the concentration scale where inhibition reaches its midpoint. As usually defined, the Kd is the equilibrium constant for the complex coming apart. Read a low Kd as tighter binding.

B1: DL11 (mIgG2A) (bispecific antibody, V domains shown)
VH: EVQLVESGGGLVQPGGSLRLSCAASGFTLSGDWIHWVRQAPGKGLEWLGEISAAGGYTDYADSVKGRFTISADTSKNTAYLQMNSLRAEDTAVYYCARESRVSFEAAMDYWGQGTLVTVSS
VL: DIQMTQSPSSLSASVGDRVTITCRASQDLATDVAWYQQKPGKAPKLLIYSASFLYSGVPSRFSGSGSGTDFTLTISSLQPEDFATYYCQQSEPEPYTFGQGTKVEIKR
As for B1, the “IC50 of inhibition of MDA-175 cell proliferation” value in [1] fell in the range of 0.8 to 1 µg/mL.

B2: DL3-11f (antibody, V domains shown)
VH: B1 VH with L48V, R101K
VL: B1 VL with D28N, L29I
Consider B2, for which the binding result with HER3 (form not given) is recorded as “binds”.

B3: D1.5-201-3 (phage-displayed Fab clone) (Fab, V domains shown)
VH: B1 VH with L29F, S30T, D32N, L48V, A53P, A54S, F104Y
VL: DIQMTQSPSSLSASVGDRVTITCRASQSLWAAYFAPVAWYQQKPGKAPKLLIYDGSYLYSGVPSRFSGSGSGTDFTLTISSLQPEDFATYYCQQRLPSPYTFGQGTKVEIKR
On to B3, for which the binding result with HER2-ECD [2] and in the assay with hEGFR-ECD [3] was “binds” each time.

B4: D1.5-400 (phage-displayed Fab clone) (Fab, V domains shown)
VH: B1 VH with L29F, S30T, D32N, L48V, A53P, A54S, F104Y
VL: DIQMTQSPSSLSASVGDRVTITCRASQDVLFYGNVAWYQQKPGKAPKLLIYDGSYLYSGVPSRFSGSGSGTDFTLTISSLQPEDFATYYCQQSYPAPYTFGQGTKVEIKR
notes: EGFR/HER4 clone
Consider B4, for which the binding result is given as “binds” in assay [4]; “no binding” in the assay with HER2-ECD [5]; “no binding” with BSA [6]; “no binding” with HER3-ECD-Fc [7]; “binds” with HER4-ECD-Fc [8]; “no binding” in the assay with Xolair [9].

B5: D1.5-113 (phage-displayed Fab clone) (Fab, V domains shown)
VH: B1 VH with L29F, S30T, D32N, L48V, A53P, A54S, F104Y
VL: DIQMTQSPSSLSASVGDRVTITCRASQSLLASHDGTPWVAWYQQKPGKAPKLLIYDASYLYSGVPSRFSGSGSGTDFTLTISSLQPEDFATYYCQQSTFAPYTFGQGTKVEIKR
notes: EGFR/HER3 clone
In the case of B5, the binding result was “no binding” with Erbitux; “no binding” with HER2-ECD [5]; “no binding” with BSA [6]; “binds” with HER3-ECD-Fc [7]; “binds” in the assay with hEGFR-ECD [10]; “no binding” with HER4-ECD-Fc [8].

B6: DL3-11b (antibody, V domains shown)
VH: B1 VH with R101K
VL: B1 VL with D28N, L29I
notes: also called DL3-11fb
As to B6, the binding result with HER3 (form not given) was “binds”.

B7: DL11b (bispecific antibody, V domains shown)
VH: B1 VH
VL: B1 VL with D28N, L29I
For the molecule B7, the “IC50 of inhibition of MDA-175 cell proliferation” value in [1] is 0.8 to 1 µg/mL.

B8: D1.5-121 (phage-displayed Fab clone) (Fab, V domains shown)
VH: B1 VH with L29F, S30T, D32N, L48V, A53P, A54S, F104Y
VL: B1 VL with L29V, A30G, T31S, V33L, F53Y, E92D
notes: EGFR/HER3 clone
Consider B8, for which the binding result in the assay with Erbitux is reported as “no binding”; with HER2-ECD [5], “no binding”; with BSA [6], “no binding”; in the assay with HER3-ECD-Fc [7] it was “binds”; with hEGFR-ECD [10], “binds”; with HER4-ECD-Fc [8] it was “no binding”.

B9: DL11 (phage-displayed Fab clone) (Fab, V domains shown)
VH: B1 VH
VL: B1 VL
notes: single Fab on phage
B9: the values for the IC50 with HER3-ECD-Fc [11] and with hEGFR-ECD [12] were 0.43 nM and 5.7 nM, respectively. The binding result with BSA [13], with mHER3-Fc, with HER4-ECD-Fc [14], in the assay with TGF-α and with Xolair [15] was “no binding” throughout.

B10: D1.5-201-2 (phage-displayed Fab clone) (Fab, V domains shown)
VH: B1 VH with L29F, S30T, D32N, L48V, A53P, A54S, F104Y
VL: B3 VL with S26N, L29I, W30A, A31G, F34Y, S56Y, Y57F
Take B10: the binding result with HER2-ECD [2] and in the assay with hEGFR-ECD [3] was “binds” in each case.

B11: D1.5 (mIgG2A) (antibody, V domains shown)
VH: B1 VH with L29F, S30T, D32N, L48V, A53P, A54S, F104Y
VL: B1 VL with L29V, A30S, D32A, E92Y, E94T
notes: also called mIgG D1.5; anti-EGFR mIgG2A
Regarding B11, the binding result in the assay with mEGFR-ECD-Fc is on record as “binds”. The molecule further had a Kd in the assay with hEGFR-ECD [16] of 1.2 nM.

B12: DL7 (phage-displayed Fab clone) (Fab, V domains shown)
VH: B1 VH with L48V, S100A, F104Y
VL: B1 VL
B12: the IC50 came out at 0.25 nM with HER3-ECD-Fc [11] and 6.1 nM with hEGFR-ECD [12]. In addition, the binding result in the assay with HER2-ECD [17], with BSA [13], in the assay with mHER3-Fc, with HER4-ECD-Fc [14], in the assay with TGF-α and in the assay with Xolair [15] was “no binding” in each case.
